Source: the Human Domainome abundance scans (Beltran et al. 2025)

B1: Pituitary-specific positive transcription factor 1, residues 130 to 198; numbered along this chain, P28069 (parent)
chain: RELEKFANEFKVRRIKLGYTQTNVGEALAAVHGSEFSQTTICRFENLQLSFKNACKLKAILSKWLEEAE

Variants of: B1
Test: abundance fitness (aPCA) (normalised: wild type 0, dead -1); higher = more abundant; growth selection in yeast, the domain comes from the species named
Details: Homo sapiens

Abundance fitness of substitutions, site by site:
N53: E 0.355 | R 0.206 | Q 0 | C -0.013 | W -0.271 | K 0.21 | G -0.087 | H 0.233 | T 0.131 | I -0.027 | V 0.122 | A 0.107 | L -0.001 | P -0.115 | S 0.115 | M 0.058
K63: L -0.3 | A 0.025 | S -0.069 | W -0.589 | Y -0.508 | Q -0.157 | F -0.799 | H 0.039 | R -0.152 | E 0.077 | T 0.022 | M -0.155 | C -0.443 | I -0.326 | P -0.303 | G -0.153 | D 0.112 | V -0.155
L65: N -0.955 | K -0.75 | S -0.636 | A -0.772 | H -0.887 | G -0.791 | T -0.935 | W -0.719 | E -0.779 | R -0.748 | I 0.105 | F -0.884 | D -0.85 | M -0.374 | Y -0.833 | V -0.38 | P -0.752
K58: Y -0.511 | E -0.738 | D -0.652 | N -0.619 | L -0.848 | S -0.58 | P -0.708 | A -0.473 | F -0.933 | M -0.151 | I -0.984 | R -0.184 | T -0.477 | Q -0.019 | G -0.652 | H -0.4 | W -0.342
I60: C -0.365 | R -0.346 | P -0.2 | S -0.568 | H -0.437 | L -0.135 | Q -0.559 | N -0.357 | W -0.611 | F -0.725 | Y -0.347 | D -0.343 | M -0.239 | E -0.567 | G -0.495 | A -0.281 | T -0.51 | V -0.024 | K -0.262
S50: C -0.459 | D 0.162 | A -0.307 | Y -0.822 | V -0.877 | F -0.724 | K -0.182 | W -0.126 | M -0.766 | L -0.57 | H -0.168 | G 0.035 | N 0.022 | Q -0.533 | I -0.378 | T -0.206 | R -0.348
L61: C -0.379 | K -0.572 | F -0.536 | S -0.815 | M -0.491 | R -1.04 | E -0.604 | T -0.778 | D -0.788 | I -0.841 | P -0.728 | Q -0.78 | G -0.757 | Y -0.759
Q48: T -0.177 | Y -0.79 | V -0.574 | W -0.915
A59: N 0.078 | L -0.122 | W -0.61 | V 0.116 | M -0.076 | K 0.025 | I 0.049 | P 0.381 | G 0.059 | R -0.059 | Q -0.045 | Y -0.298 | S 0.007 | D 0.094 | C -0.084 | E 0.214 | T 0.042
W64: F -0.398 | Q -0.643 | L -0.795 | T -0.684 | A -0.496 | K -0.461 | G -0.568 | C -0.164 | N -0.475 | S -0.722 | R -0.79 | V -0.966
E69: C -0.537 | D -0.28 | A -0.436
A54: W -0.302 | V -0.756 | L -0.033 | S 0.06 | Q -0.473 | Y -0.333 | F -0.131 | G -0.295 | C -0.382 | M 0.358 | R -0.974
K56: F -0.554 | E -0.132 | S -0.23 | T -0.307 | H -0.34 | V -0.135 | W -0.533 | D -0.366 | R 0.005 | M -0.268 | G -0.341 | P -0.626 | C -0.505 | A -0.226 | N -0.131 | Q -0.074 | L -0.466
K52: R -0.04 | Y 0.057 | I -0.463 | W -0.408 | L -0.369 | G -0.149 | E 0.108 | D 0.075 | V 0.073 | N -0.024 | T 0.036 | A 0.002 | S -0.002 | P -0.077 | H 0.018 | Q 0.022 | C -0.753
E67: D 0.002 | P -0.721 | W -0.203 | K -0.18 | N -0.134 | Q -0.125 | F -0.49 | L -0.594 | C -0.301 | Y -0.36 | V -0.39 | H -0.34 | T -0.371 | A -0.214 | S -0.088 | R -0.172
A68: E -0.003 | S -0.518 | V -0.071 | F -0.747 | R -0.232 | M -0.061 | N -0.24 | I 0.128 | H -0.271 | D -0.78 | L -0.778 | C -0.752 | T -0.05 | K 0.047 | G -0.664
C55: W -0.14 | L 0.121 | V 0.15 | E -0.07 | R -0.294 | G -0.395 | S 0.024 | A -0.207 | I 0.046 | D 0.188 | K -0.153 | M 0.145 | T -0.098 | Y 0.012 | H -0.099 | N -0.201
L49: H -0.721 | F -0.149 | M 0.106 | Q -0.749 | P -0.687 | G -0.632 | D -0.847 | C -0.208 | N -0.818 | W -1.15 | I -0.262 | E -0.616 | S -0.568 | A -0.964 | Y -0.477 | V -0.323 | R -0.862
F51: T -0.07 | H 0.077 | M -0.156 | D -0.001 | K -0.11 | P -0.142 | V 0.021 | G -0.39 | E 0.144 | A -0.174 | S -0.189 | N -0.342 | Y 0.034 | R -0.161 | L -0.19 | C -0.534 | Q -0.061 | W -0.042 | I -0.1
S62: I 0.001 | G -0.239 | T 0.014 | Y -0.585 | F -0.059 | E 0.016 | V -0.167 | H -0.127 | Q 0.047 | N -0.438 | R -0.377 | L -0.144 | W -0.009 | P -0.909 | K -0.3 | C -0.3 | A -0.015
L57: M 0.285 | C -0.228 | N -0.72 | S -0.534 | R -0.584 | E -0.345 | I 0.013 | T -0.262 | F -0.126 | H -0.226 | G -0.507 | K -0.497 | A -0.449 | W -0.642 | V 0.063 | D -0.67 | Y -0.156 | P -0.89
E66: M -0.332 | D -0.037 | S -0.335 | F -0.242 | T -0.115 | V -0.123 | G -0.373 | K -0.296 | I -0.281 | W -0.562 | Q -0.193 | A -0.054 | R -0.241 | Y -0.304 | N -0.373 | H -0.334 | C -0.108
